What was measured:
IMP3 dKH1-2 = IMP3 dKH1-2 (Homo sapiens, UniProt O00425 1-579, K213D;E214D;K294D;E295D); test: EMSA; Hill n 1.9; EMSA: 10 mM Tris-HCl pH 7.5, 150 mM NaCl, 0.5 mM EDTA, 0.5 mM DTT, 0.1% NP-40, 5% glycerol, tRNA+BSA, 5 nM RNA, 30 min RT then ice; ITC/NMR: 20 mM Bis-Tris, 150 mM NaCl, 2 mM TCEP (protein buffer pH 6.5), ITC RT, NMR 25 C; settings: protein: recombinant; tags: GST; label: 32P-UTP
IMP3 full-length [1] = molecular target: T1, IMP3 full-length (Homo sapiens, UniProt O00425 1-579); test: EMSA; tRNA and BSA competitors; EMSA: 10 mM Tris-HCl pH 7.5, 150 mM NaCl, 0.5 mM EDTA, 0.5 mM DTT, 0.1% NP-40, 5% glycerol, tRNA+BSA, 5 nM RNA, 30 min RT then ice; ITC/NMR: 20 mM Bis-Tris, 150 mM NaCl, 2 mM TCEP (protein buffer pH 6.5), ITC RT, NMR 25 C; settings: protein: recombinant; tags: N-terminal GST (pGEX-6P2); C-terminal His6 removed by TEV; label: 32P-UTP
T1 sequence (O00425 whole entry): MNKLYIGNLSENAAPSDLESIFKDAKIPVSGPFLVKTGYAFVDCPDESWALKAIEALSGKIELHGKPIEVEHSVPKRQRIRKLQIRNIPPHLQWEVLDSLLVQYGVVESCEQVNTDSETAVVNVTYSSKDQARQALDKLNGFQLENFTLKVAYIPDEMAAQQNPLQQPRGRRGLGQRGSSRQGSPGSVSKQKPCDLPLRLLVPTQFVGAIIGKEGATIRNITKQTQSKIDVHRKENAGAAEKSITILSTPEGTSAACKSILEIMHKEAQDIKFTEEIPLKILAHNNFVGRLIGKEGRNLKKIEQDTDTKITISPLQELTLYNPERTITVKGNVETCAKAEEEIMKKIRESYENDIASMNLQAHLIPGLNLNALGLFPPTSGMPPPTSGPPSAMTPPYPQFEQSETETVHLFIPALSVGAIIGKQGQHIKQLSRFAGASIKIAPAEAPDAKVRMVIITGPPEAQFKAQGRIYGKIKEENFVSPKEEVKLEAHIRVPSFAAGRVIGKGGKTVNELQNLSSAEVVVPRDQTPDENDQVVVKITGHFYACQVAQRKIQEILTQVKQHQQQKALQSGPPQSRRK

IMP3 dRRM1 = IMP3 dRRM1 (Homo sapiens, UniProt O00425 1-579, Y5A;Y39A;F41A); test: EMSA; Hill n 2.8; EMSA: 10 mM Tris-HCl pH 7.5, 150 mM NaCl, 0.5 mM EDTA, 0.5 mM DTT, 0.1% NP-40, 5% glycerol, tRNA+BSA, 5 nM RNA, 30 min RT then ice; ITC/NMR: 20 mM Bis-Tris, 150 mM NaCl, 2 mM TCEP (protein buffer pH 6.5), ITC RT, NMR 25 C; settings: protein: recombinant; tags: GST; label: 32P-UTP
Sequence of IMP3 dRRM1 (O00425 whole entry Y5A/Y39A/F41A): as the sequence (O00425 whole entry) above, with Y5A, Y39A, F41A counted along it

IMP3 full-length [2] = molecular target: T1, IMP3 full-length; test: EMSA; EMSA: 10 mM Tris-HCl pH 7.5, 150 mM NaCl, 0.5 mM EDTA, 0.5 mM DTT, 0.1% NP-40, 5% glycerol, tRNA+BSA, 5 nM RNA, 30 min RT then ice; ITC/NMR: 20 mM Bis-Tris, 150 mM NaCl, 2 mM TCEP (protein buffer pH 6.5), ITC RT, NMR 25 C; settings: protein: recombinant; tags: N-terminal GST (pGEX-6P2); C-terminal His6 removed by TEV; label: 32P-UTP
IMP3 KH1-d2 = IMP3 KH1-d2 (Homo sapiens, UniProt O00425 192-355, K294D;E295D); test: ITC; EMSA: 10 mM Tris-HCl pH 7.5, 150 mM NaCl, 0.5 mM EDTA, 0.5 mM DTT, 0.1% NP-40, 5% glycerol, tRNA+BSA, 5 nM RNA, 30 min RT then ice; ITC/NMR: 20 mM Bis-Tris, 150 mM NaCl, 2 mM TCEP (protein buffer pH 6.5), ITC RT, NMR 25 C; settings: protein: recombinant; tags: Trx-His6 removed by TEV, leaves GAMA
Sequence of IMP3 KH1-d2 (O00425 192-355 K294D/E295D): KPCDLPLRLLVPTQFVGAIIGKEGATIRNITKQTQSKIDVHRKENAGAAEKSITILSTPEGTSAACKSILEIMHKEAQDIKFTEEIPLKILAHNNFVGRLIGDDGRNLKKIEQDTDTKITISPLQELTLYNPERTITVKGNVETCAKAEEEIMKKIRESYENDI

IMP3 KH1-2 WT = IMP3 KH1-2 WT (Homo sapiens, UniProt O00425 192-355); test: as above; settings: protein: recombinant; tags: Trx-His6 removed by TEV, leaves GAMA
Sequence of IMP3 KH1-2 WT (O00425 192-355): as the sequence (O00425 192-355 K294D/E295D) above, with D103K, D104E counted along it

IMP3 KHd1-2 = IMP3 KHd1-2 (Homo sapiens, UniProt O00425 192-355, K213D;E214D); test: as above; settings: protein: recombinant; tags: Trx-His6 removed by TEV, leaves GAMA
Sequence of IMP3 KHd1-2 (O00425 192-355 K213D/E214D): as the sequence (O00425 192-355 K294D/E295D) above, with K22D, E23D, D103K, D104E counted along it

IMP3 RRM1-2 = IMP3 RRM1-2 (Homo sapiens, UniProt O00425 2-156); test: as above; settings: protein: recombinant; tags: Trx-His6 removed by TEV; primer note: GA-MA-K3 N-terminus
Sequence of IMP3 RRM1-2 (O00425 2-156): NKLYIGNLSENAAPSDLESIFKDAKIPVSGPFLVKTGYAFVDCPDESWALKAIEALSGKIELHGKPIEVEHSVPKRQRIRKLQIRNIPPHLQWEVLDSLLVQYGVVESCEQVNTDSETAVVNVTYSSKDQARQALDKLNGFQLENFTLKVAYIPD

Sequence of IMP3 dKH1-2 (O00425 whole entry K213D/E214D/K294D/E295D): as the sequence (O00425 whole entry) above, with K213D, E214D, K294D, E295D counted along it

B1: 101-mer (ssRNA)
RNA: GGGAGGGAGGAAGGCAAUUUUGGAGGAACUACAGAACACAUAUCGCAGCUAAAACACAAUUUUGGAGGAACUACAGAAUGCGGCUAUCCACACACAAAGGG
Kd (IMP3 dKH1-2): 50.7 ± 1.6 nM | Kd (IMP3 full-length [1]): 3.5 ± 0.7 nM | Kd (IMP3 dRRM1): 29.2 ± 1 nM

B2: 101-mer CA->UG (ssRNA)
RNA: GGGAGGGAGGAAGGCAAUUUUGGAGGAACUACAGAAUGUGUAUCGCAGCUAAAAUGUGAUUUUGGAGGAACUACAGAAUGCGGCUAUCUGUGUGUGAAGGG
Kd (IMP3 full-length [2]): 70.5 ± 3.2 nM

UCGGCAC (ssRNA) [GGC (CGG) 7-mer]
Kd (IMP3 KH1-d2): 39000 ± 8000 nM | Kd (IMP3 KH1-2 WT): 45000 ± 8000 nM | binding result (IMP3 KHd1-2): no binding

B3: 101-mer GGC->UG (ssRNA)
RNA: GGGAGGGAGGAAUGUGAUUUUGGAGGAACUACAGAACACAUAUCGCAGCUAAAACACAAUUUUGGAGGAACUACAGAAUGUGUGUAUCCACACACAAAGGG
Kd (IMP3 full-length [2]): 23.8 ± 0.7 nM

AACACAA (ssRNA) [CA 7-mer]
binding result (IMP3 KH1-d2): no binding

CACACACACA (ssRNA) [(CA)5]
Kd (IMP3 RRM1-2): 9000 ± 2000 nM

CACACA (ssRNA) [(CA)3]
Kd (IMP3 RRM1-2): 8000 ± 3000 nM

GUGUGUGUGU (ssRNA) [(GU)5]
Kd (IMP3 RRM1-2): 49000 ± 3000 nM

B4: 101-mer allUG (ssRNA)
RNA: GGGAGGGAGGAAUGUGAUUUUGGAGGAACUACAGAAUGUGUAUCGCAGCUAAAAUGUGAUUUUGGAGGAACUACAGAAUGUGUGUAUCUGUGUGUGAAGGG
Kd (IMP3 full-length [2]): 61.1 ± 3.6 nM

B5: 101-mer GGC<->CA (ssRNA)
RNA: GGGAGGGAGGAAGGCAAUUUUGGAGGAACUACAGAACACAUAUCGCAGCUAAAACGGCUAUUUGGAGGAACUACAGAAUGCACAUAUCCACACACAAAGGG
Kd (IMP3 full-length [2]): 15.4 ± 0.6 nM

B6: 101-mer GGC<->CA_UG (ssRNA)
RNA: GGGAGGGAGGAAGGCAAUUUUGGAGGAACUACAGAAUGUGUAUCGCAGCUAAAACGGCUAUUUGGAGGAACUACAGAAUGUGUGUAUCUGUGUGUGAAGGG
Kd (IMP3 full-length [2]): 34.9 ± 0.7 nM

B7: 101-mer (CA)4<-> (ssRNA)
RNA: GGGAGGGACACACACAGGAAGGCAAUUUUGGAGGAACUACAGAACACAUAUCGCAGCUAAAACACAAUUUUGGAGGAACUACAGAAUGCGGCUAUCAAGGG
Kd (IMP3 full-length [2]): 5.6 ± 0.8 nM

B8: ANKRD17 exon 29 (ssRNA)
RNA: GGGUCUGUCCGAAGGCAGCUUUUUGUCACAGUUGUGAAGACAUCCAAUCGCCACACAACAACAGUCACAACCACGGCAAGCAACAACAACACUGCACCCACAAAUGCCACAUAUCCUAUGC
Kd (IMP3 full-length [2]): 1.6 ± 0.4 nM

Reference: PMC6531468, “Combinatorial recognition of clustered RNA elements by the multidomain RNA-binding protein IMP3”
